Consider 4 molecules from US9518268B2, “Drought tolerant transgenic plants and method of making same” (PURDUE RESEARCH FOUNDATION, priority 2013, dated 2016).

For data set [1], the system named is ABI1. The data set is described as follows: Phosphatase activity assay (pNPP) with purified PP2Cs and PYLs. To be noted: in the presence of 10 μM ABA; ABI1 and PYLs 0.3 μM. It counts as biochemical, Arabidopsis thaliana. As to the method: The inhibition by PYL13 is ABA-independent, whereas the inhibition by PYR1 and PYL2 is ABA-induced (FIG. 4B). […] The phosphatase activities of PP2CA, ABI1, and ABI2 were measured in the absence or presence of ABA (1.25 μM), and with or without PYLs. The concentration of PP2Cs and PYLs was 0.3 μM. The A405 value of reaction without PP2C was set as 0% and that of the reaction with PP2C but without ABA and PYLs was set as 100%. Error bars indicate s.e.m. (n=6 for PP2CA and ABI2, and n=3 for ABI1).
To test the functional significance of potential heterodimer formation between PYL13 and other PYLs, the abilities of PYL1 and PYL2 and the protein complexes PYL13-PYL1 and PYL13-PYL2 to inhibit the phosphatase activity of ABI1 were compared using purified recombinant proteins and the synthetic phosphatase substrate pNPP. […] The phosphatase activity of ABI1 was measured (using pNPP) in the absence or presence of 10 μM ABA, with or without PYLs, and with PYL13-PYL dimers. The concentration of ABI1 and PYLs was 0.3 μM. The A405 value of reaction without ABI1 was set as 0% and that of the reaction with ABI1 but without ABA and PYLs was set as 100%. Error bars indicate s.e.m. (n=6). In the presence of 10 μM ABA, ABI1 phosphatase activity was reduced to 67±6% by PYL1 but only to 88±8% by PYL13-PYL1. In the presence of 10 μM ABA, ABI1 phosphatase activity was reduced to 50±3% by PYL2 but only to 78±10% by PYL13-PYL2.
Phosphatase activity was measured using the colorimetric substrate p-nitrophenyl phosphate (pNPP, SIGMA). Reactions were performed in a reaction buffer containing 50 mM Tris-HCl, pH 7.5, 25 mM Mg(OAc)2, 2 mM MnCl2, 0.5 mM EGTA, 0.5% β-mercaptoethanol, and 0.5% BSA. ABA and PYLs were added as indicated. The concentration of PP2Cs and PYLs was 0.3 μM. Reactions were initiated by the addition of pNPP to a final concentration of 50 mM. The hydrolysis of pNPP was measured by following the absorbance at 405 nm (A405). Because His-PYL13 is difficult to purify, is prone to degradation, and rapidly loses activity, newly purified PYL13 was used for the phosphatase activity assay.

Data set [2] addresses T1, ABI1 (Arabidopsis thaliana, UniProt P49597+Q8H1R0).
T1 sequence (P49597 1-434): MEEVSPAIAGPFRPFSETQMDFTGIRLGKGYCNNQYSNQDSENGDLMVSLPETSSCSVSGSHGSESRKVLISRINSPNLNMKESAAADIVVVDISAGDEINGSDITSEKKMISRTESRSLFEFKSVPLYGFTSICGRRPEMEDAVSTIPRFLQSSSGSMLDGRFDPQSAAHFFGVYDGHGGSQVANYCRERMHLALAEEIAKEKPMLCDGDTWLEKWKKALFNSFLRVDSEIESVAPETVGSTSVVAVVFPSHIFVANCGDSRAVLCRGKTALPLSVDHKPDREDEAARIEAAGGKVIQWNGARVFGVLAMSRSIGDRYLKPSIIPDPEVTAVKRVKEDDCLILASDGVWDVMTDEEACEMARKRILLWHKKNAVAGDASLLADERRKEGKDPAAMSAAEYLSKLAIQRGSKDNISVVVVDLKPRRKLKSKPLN
T1 sequence (Q8H1R0 1-183): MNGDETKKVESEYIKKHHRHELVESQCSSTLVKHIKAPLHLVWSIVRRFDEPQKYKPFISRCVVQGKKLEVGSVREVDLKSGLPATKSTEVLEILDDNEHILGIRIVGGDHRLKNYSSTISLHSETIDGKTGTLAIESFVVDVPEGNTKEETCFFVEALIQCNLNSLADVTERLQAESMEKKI
To be noted: read-out: dissociation constant (Kd) of PYL10-ABI1 interaction, cited from earlier work.

Read-outs that look alike come from different tables or passages of the source.

As to “PYL1: Arabidopsis thaliana PYL family ABA receptor protein PYL1, AT5G46790”, in data set [1], the “ABI1 phosphatase activity reduced to” value amounted to 67±6%.
As to “PYL13-PYL1: protein complex (heterodimer) of purified recombinant PYL13 and PYL1”, the “ABI1 phosphatase activity reduced to” value in data set [1] amounted to 88±8%.
In the case of “PYL13-PYL2: protein complex (heterodimer) of purified recombinant PYL13 and PYL2”, in data set [1], the “ABI1 phosphatase activity reduced to” value is on record as 78±10%.

B1: PYL10: Arabidopsis thaliana PYL family protein PYL10, AT4G27920 (protein, listed as Arabidopsis thaliana)
chain: T1 sequence (Q8H1R0 1-183)
Consider B1, for which the Kd in data set [2] (with ABA) was 20 nM; in data set [2] (without ABA) it was 1200 nM.

For orientation: Kd means the free concentration of one partner at which half of the binding sites on the other are occupied at equilibrium, for simple one-to-one binding.
